± gives the uncertainty stated by the source.
Experiment: self-splicing fitness, log relative to wild type (ln ratio); higher = more splicing; Tetrahymena group I intron in knt gene, E. coli kanamycin selection, DiMSum; sequences stand for … in CUCUCU…GGAGGGAAAAGUUAUCAGGCAUGCACCUGGUAGCUAGUCUUUAAACCAAUAGAUUGCAUCGGUUUAAAAGGCAAGACCGUCAAAUUGCGGGAAAGGGGUCAACAGCCGUUCAGUACCAAGUCUCAGGGGAAACUUUGAGAUGGCCUUGCAAAGGGUAUGGUAAUAAGCUGACGGACAUGGUCCUAACCACGCAGCCAAGUCCUAAGUCAACAGAUCUUCUGUUGAUAUGGAUGCAGUUCACAGACUAAAUGUCGGUCGGGGAAGAUGUAUUCUUCUCAUAAGAUAUAGUCGGACCUCUCCUUAAUGGGAGCUAGCGGAUGAAGUGAUGCAACACUGGAGCCGCUGGGAACUAAUUUGUAUGCGAAAGUAUAUUGAUUAGUUUUGGAGUACUCGUGGUCG
In short: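 A randomised library covering all eight P1ex-region intron nucleotides was built with the intron in the knt kanamycin-resistance gene on pET-22b(+) and held in E. coli BL21(DE3). Cells were grown overnight at 37°C or 30°C on LB agar, with or without 25 μg/mL kanamycin, plus 100 μg/mL carbenicillin, 50 μM IPTG and 0.2% rhamnose, and pooled colonies were amplicon-sequenced on an Illumina HiSeq 2500. DiMSum fitness is the error-weighted combination of wild-type-normalised replicate fold changes, kanamycin versus none.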

Row | Sequence | self-splicing fitness (ln) (30 °C) | self-splicing fitness (ln) (37 °C)
1 | AAUUAGCAAUAUUACGGUCG | -0.573 ± 0.099 | -0.259 ± 0.12
2 | GGACAGCAAUAUUACGGCUG | -3.23 ± 0.31 | -0.371 ± 0.18
3 | AAGUAGCAAUAUUACGCUGG | -2 ± 0.12 | -0.92 ± 0.12
4 | CUGGAGCAAUAUUACGUGGC | -2.22 ± 0.21 | -2.13 ± 0.25
5 | GUGCAGCAAUAUUACGUCAG | -3.02 ± 0.13 | -1.83 ± 0.11
6 | GAGUAGCAAUAUUACGAAGA | -2.63 ± 0.3 | –
7 | UAUAAGCAAUAUUACGUGGC | -3.47 ± 0.32 | -2.73 ± 0.44
8 | CAAGAGCAAUAUUACGCACG | -1.96 ± 0.11 | -0.942 ± 0.12
9 | CGACAGCAAUAUUACGUUGC | -3.9 ± 0.37 | -2.35 ± 0.36
10 | CGGUAGCAAUAUUACGAUUU | -2.17 ± 0.17 | -0.333 ± 0.15
11 | UAACAGCAAUAUUACGAAUU | -3.02 ± 0.13 | -1.86 ± 0.18
12 | AAGAAGCAAUAUUACGACAC | -0.918 ± 0.12 | -0.625 ± 0.14
13 | ACGGAGCAAUAUUACGAGAU | -3.66 ± 0.21 | 0.0618 ± 0.16
14 | ACGGAGCAAUAUUACGCCAU | -2.63 ± 0.25 | –
15 | UACGAGCAAUAUUACGAGCG | -1.12 ± 0.13 | -0.262 ± 0.14
16 | UUAGAGCAAUAUUACGAUAA | -0.0105 ± 0.13 | 0.418 ± 0.18
17 | AUUGAGCAAUAUUACGGACC | -3.26 ± 0.48 | –
18 | ACUAAGCAAUAUUACGACCC | -1.08 ± 0.25 | -0.275 ± 0.32
19 | AUGGAGCAAUAUUACGGAGG | -2.11 ± 0.17 | -2.54 ± 0.3
20 | GUACAGCAAUAUUACGUAAC | -2.18 ± 0.14 | -1.11 ± 0.12
21 | CCUCAGCAAUAUUACGGAUA | -1.87 ± 0.15 | -2.41 ± 0.24
22 | CUGAAGCAAUAUUACGGGAA | -2.05 ± 0.18 | –
23 | CAACAGCAAUAUUACGGGAU | -3.7 ± 0.15 | -2.08 ± 0.15
24 | GUGAAGCAAUAUUACGUCCC | -1.28 ± 0.35 | -0.367 ± 0.2
25 | CCACAGCAAUAUUACGACUA | -3.08 ± 0.25 | -2.88 ± 0.29

Row | Sequence | self-splicing fitness (ln) (30 °C) | self-splicing fitness (ln) (37 °C)
26 | CAUAAGCAAUAUUACGGGCC | – | -1.25 ± 0.36
27 | GAAAAGCAAUAUUACGUGUC | -3.41 ± 0.13 | -2.33 ± 0.14
28 | AACUAGCAAUAUUACGUGUU | -2.68 ± 0.11 | -2.45 ± 0.16
29 | CAUGAGCAAUAUUACGAGAC | -3.32 ± 0.32 | -1.35 ± 0.3
30 | ACUAAGCAAUAUUACGACUA | -1.52 ± 0.14 | -0.721 ± 0.14
31 | CACCAGCAAUAUUACGUCCU | -3.31 ± 0.13 | -1.87 ± 0.14
32 | GCGAAGCAAUAUUACGAGGA | – | -1.58 ± 0.31
33 | CCCUAGCAAUAUUACGUUUC | -3.32 ± 0.17 | -2.24 ± 0.19
34 | ACCUAGCAAUAUUACGCACU | -0.127 ± 0.085 | 0.3 ± 0.12
35 | CCUCAGCAAUAUUACGACCG | -0.986 ± 0.093 | -0.493 ± 0.095
36 | GCUAAGCAAUAUUACGGUGU | -2.48 ± 0.087 | -1.6 ± 0.1
37 | AGUUAGCAAUAUUACGUUUA | -2.23 ± 0.21 | -1.06 ± 0.21
38 | AUCGAGCAAUAUUACGUACC | -3.76 ± 0.35 | -1.53 ± 0.34
39 | UUGAAGCAAUAUUACGAAUU | -2.73 ± 0.33 | -1.3 ± 0.31
40 | AAGAAGCAAUAUUACGGCUG | -0.496 ± 0.077 | -0.25 ± 0.12
41 | CGUAAGCAAUAUUACGCCCU | -1.4 ± 0.16 | -0.426 ± 0.16
42 | GAAGAGCAAUAUUACGCUCU | -3.53 ± 0.23 | -2.74 ± 0.24
43 | AGCGAGCAAUAUUACGGAUA | -2.18 ± 0.39 | -2.17 ± 0.34
44 | CCUAAGCAAUAUUACGCGCC | -2.47 ± 0.26 | -1.63 ± 0.33
45 | GUUCAGCAAUAUUACGGGUA | -2.23 ± 0.12 | -0.474 ± 0.097
46 | UCAUAGCAAUAUUACGUAUA | -2.54 ± 0.34 | -2.13 ± 0.28
47 | UGAAAGCAAUAUUACGCAAC | -3.98 ± 0.29 | -1.69 ± 0.19
48 | UCCGAGCAAUAUUACGUACC | -2.2 ± 0.2 | -1.93 ± 0.37
49 | GUUCAGCAAUAUUACGGGGU | -3.36 ± 0.17 | -1.73 ± 0.16
50 | AAGAAGCAAUAUUACGAGAU | -3.43 ± 0.18 | -1.56 ± 0.14
